Data on 70 sequences can be found in the domain aggregation screens of Martell et al. (2025).
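Further: 20 min heating vs room temperature control held 20 min.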

This data set can be described thus: soluble fraction after stress (log2 fold change); higher = more stays soluble; pooled small domains, quantitative proteomics. The following applies: stress: 75 degC.
On to “HMTTVTVGSKVRVKAGATFSDGAKPFAEVYNTVYDVQLLSHNGKEARIGIGDQWTGWIYISDLYLANQPAP”, for which the “soluble fraction (log2)” value was -1.84.
For the sequence “HMTVEMYIGKTANVLETVTENNGRIAIFGEEWQAKSLNGETIEKGAQAKIVKNDSIIMYVVPI”, the “soluble fraction (log2)” value was -0.443.
On to “HMTVGENTYELIKKDIIFGVLPPLKKLKLQELKKIYNASVSTLREILSRLTGDGFVFSEEQKGFYVSPV”, for which the “soluble fraction (log2)” value was 0.0263.
In the case of “HMTVKEVGYDTFLTMLDKKEIKQVQVEDNQIIFSDNADPVNYYKTGVFNDPDLVNRLQDAGVEFG”, the “soluble fraction (log2)” value was determined as 1.01.
As for “HMTVKEYNRAVDEYSDAVWRFIRGNLRDEDRANDIVQDSFEKLWMHVTEIDYSVAKSWLFSTAYNNMIDI”, the “soluble fraction (log2)” value is -0.707.
Under “HMTVKKLTINEDNSGRRIDNYLLSIFNSLPRSKIYNIIRKGEVRVNSSRIKPNYRLEQGDLVRIPPNLEFT” stands 0.154; under “HMTVKRNLVQEILRLKFRHPENFMPNRAFYQEVGINQMRWWDIFYGRKNINQEEYIALSKYF”, -0.353; under “HMTVLPTEQDAKALVGLGEEEAAKIVEGNGWTYRIGSRDGEQFMLTEDFVTSRLTLGIEKAIVMTATI”, -0.906.
As for “HMTVLSKEEFVAIEQRLLQLLGTAPVDNKILLQQLSGIKKEKAWKVLSFLQAENKIGMDATGRVYL”, the “soluble fraction (log2)” value is -0.974.
On to “HMTVPDVKGMGARDAVFLLETLGFKVRINGIGQVYEQSIDPGKSYSKGEFISLRL”, for which the “soluble fraction (log2)” value is -0.699.
Under “HMTVPNVVGQRILAAQDILKNLGLKVLVDTNLPNSQWGLRNVKSTNPGAGAVVRVGDTVTLIAR” stands -0.441; under “HMTVPTEVALELMHATALEDNEQRILYIASFKEKHREHLHATIEVDGQEVTLARYADLVATGAYL”, -2.56; under “HMTVSADIIQKIIKTSTTDENIITIDSISNSISKLALSKITAEDIIEILEASSLVLRNSNGSWTVL”, -1.7.
For “HMTVSKLKVINYTIRNGDSLWTISRKFNVTVDKVKEWNGLSDRTLLQPGQKLTLYVDPTIQISH”, the “soluble fraction (log2)” value was -1.82.
Under “HMTVSLLQTRQRLQALADLGHYKGDLGAAWGPDAIEALKKAQATLGVTVDGKWGPQTEDAIQVALKVQ” stands -0.237; under “HMTVTISPGYEGRLLRSYLKNTLSLSTSALARLKTREDGITVNGVRVTVRYVLHAGDLLQLAVD”, -0.579; under “HMTVVHRQVHLQPDQGAFRAALYSHKAVLSEQTDDQGAINLEIRLPESDFLRLLNSSGLKLQDLVP”, -0.427.
In the case of “HMTVVSVDDQASASSEAIRTKVAGDSAARMSVDAGGKITWGAGSASGDVTLYRSAANTLKTDDTLVAT” it was 0.16; in that of “HMTYADTRDLLIRRGMELLTEQGIAATSIERVLQSTGIPKGSFYHYFATKHDFTLAVMDAYHHY”, -0.157.
In the case of “HMTYAQQIGARIAFLRRLKGLTLAELAERVNKHKSTISKYESGQIIIDIESLKEVADALGVDVAQIVE” it was -1.26; in that of “HMTYFDIAPELLTVYKEINDIPRDINQIVRKTGLSINEVSYKTMILQLEDKIVELPGQRFIRNS”, -2.46.
For “HMTYKHLTIDEMKRFLSTREDSQSALVQFARVENVVGNRKGKYAVIKKWFLKNYKEEYNAFLS”, the “soluble fraction (log2)” value amounted to 0.0231.
In the case of “HMTYPGSIALVNPKHEAFVQHYVATSGSRGQAAKLAGVTTTTARNLLQDVEATARIRYLNAQQFQ” it was -0.12.
In the case of “HMTYTGTVTGVDEGGLRVRSSTSTENTSNVITKVYTGDTFDVLDTVYNGSAKWYKIGFTYNGTYTYGYVSA” it was -1.51.
In the case of “HMTYVSVSNYIGTNVDKAKGELESQGLVVLLEEQKTEDKSQDGMVLKQTIEGGTKVSSGSRITLIYGRYT” it was -0.0441; in that of “HMVADEGELLAIAREVVAANPKVFEDWKAGKQSAAQWFVGQIMKRTRGRANPQLALKLVTQALEEHAR”, 0.0384.
On to “HMVAEKSKIEMAIDSINKLAKELADSGVAKKTISDIIKSVSGSANYNKITDFEVATDVYKELVALKNKEDT”, for which the “soluble fraction (log2)” value is 0.223.
As to “HMVAESGLPPAFRSTWRHIMQTRGAQLDVLAMRTGTDAASLQKQLHAMELGGWVRRMPGGWYVPLK”, the “soluble fraction (log2)” value is -1.78.
As for “HMVAFYATPKERGIYDDAETYREGDIVSIADGSRWIYVNPTATAGNDPADGSVYWERMSGAATGP”, the “soluble fraction (log2)” value was 0.116.
In the case of “HMVAGHLQEKKGYFYMVLTYRDHEGKRKSKWLPTGLTIKGNKKRAQDLLQDARKNFVPDIPT”, the “soluble fraction (log2)” value was -2.37.
Under “HMVAGHLQEKNGYFYIVLNYTNHEGKRKSKWITTGLTVKGNKKRAQDLLQEARKTFVPDIPT” stands -2.88; under “HMVAPKDIVMPSFVGKKYTDVVNTPNSSYTFEFKKDEKNSSDYAVGFIMDQKPKAGETVKSNATVTLIVSK”, 0.0603.
Under “HMVAPNSEATTKLIIEKTKYANESPAILMGFKATATMLMAKHVVLPTSKYAYFNEGRALLEKAIK” stands 0.154; under “HMVAREAYTTQNLTDVFSISRQAVEKRAKREGWQSVPRKGRGGGKLWVVSSMPAETRDLLASLLLRK”, -0.608; under “HMVDALYGQGARVMRDFSEGSGIVKLDNGETWTGRLSPAASGASLYVGDRVIVTRIDGAIAEVTPP”, 0.00352.
As to “HMVDDNFGLGEVTDQNYLTVLGRALDLIGWTDEQADSYSLKTFGVPHWDELGRSQAEKLVAHLIGLLKEQM”, the “soluble fraction (log2)” value worked out at 0.0834.
In the case of “HMVDIEQAEFLSRQFDLLLARLDDPTIEWQDIADIRSEYTGENEHRDTIRKGSKLFYEYLQAGWIKN” it was -0.678; in that of “HMVDISLSDRELEVLRLLAMGLSNADISRRLYLSEGTIRNYMSGIFSKLNVSDRTQAVVIALREGLVNL”, -1.56; in that of “HMVDPAEASKRAREYLDALPADDLKDVIRQFSATLAEGSVVLGYFQRSGLKSKVVKTALEQFVASTILSK”, -1.16.
In the case of “HMVDPAFLAWQQKPENTWFGTDRRKTALAIAIAEEIRNDPANSNLVGAAFYARVAEETEETLN” it was -0.546; in that of “HMVDPWLEQVHRASAAYATAHGSARIPTTHPDLGWKVVRVRQRHRKGLLSDEWVAKFEALPGWTWEPK”, -1.52; in that of “HMVDQAFQTQLKNIQARTGKNLDELYAFIRASGLVKHGEIRDLAKRELSLGHGDANTLAKFYLESLAAAA”, 0.0377.
As for “HMVDQKLIQASAEHSGIRIDRFLSEQLPEHSRSYIQKLIKDGQVSIGGKAVKSNYKIAGTEEISLLIPDQ”, the “soluble fraction (log2)” value is -0.0516.
With “HMVDTSDLPAIVEKVFADNPEQVNDILNGKDRVKGFLVGQIMKATRGQAPPDEVNKLIDATLEKMKAA”, the “soluble fraction (log2)” value turned out to be 0.239.
Under “HMVDYIGRRGVMLSTVSEEKMGNAEVVIDGNSYNIYVKSLDGSTIAYHQEILIINKSKDNNYFLVQIY” stands -2.81.
Turning to “HMVEAIDQALIEKQIQAVLQENSAAVKKYQAGKTEVLAFLIGQSMRKIAKKVDANLVKNILLEQLKNK”, the “soluble fraction (log2)” value turned out to be 0.228.
With “HMVEDFSEVLLQYIREQGGAIALNDKTDAGVIYDTFGVSKKTFKKAVGDLYKKRLIVLGDEGIRLA”, the “soluble fraction (log2)” value is -0.757.
Under “HMVEIGENIKKLRKAKRMTQKEVANQLNVTPQTISKWERNISYPDLDMLVKLSQLFHISTDALL” stands -0.553; under “HMVELNDNEKIVYDILKETEKIHIDELTAKVQLTQSILSGALVQMEMKGMIVSLPGKMYKLL”, -1.65; under “HMVELRDGSLPLARGSVGDLVAEVQRKLGVAADGIFGPQTERAVRAFQARAGLASDGIVGPLTWSALFGA”, -0.516.
Under “HMVELVKVPALQGETVDEAIADIKDAGLEPGQVRYVESDLPKDTVTYQSVDAGEQVKAGTVINLQASKGP” stands 0.765; under “HMVEMSNMELVREQYFQNLIYNVGDWVKDSKTEITGEVVKRGTNYLTIVQEDFTLHKVWLEDAESME”, -0.511; under “HMVEPDELTEREREVLQFVARGLSNKEIGAALALSPHTIKAHLRSILDKLHLRSRAEAAAWAVRSGLS”, -0.344.
For the sequence “HMVEPLIVRNFSINYADIDKLETKIKDYISNSDKSGVNRGRVTSDTRTNMLIVTETASKLAQVEQLLKALD”, the “soluble fraction (log2)” value was -0.279.
On to “HMVEPTDFTYLKAEVETAKALKQADYTVATWKSFAGELAEAEEVIAKTDASQAEVNEALSHLQAAEKELV”, for which the “soluble fraction (log2)” value was determined as 0.23.
Under “HMVETDQESSLIQAIYKYFEITGDNTFFDEKVGEKTVADRMEWAMDYLIQNRFSEEYGLIWGA” stands -0.285; under “HMVFADRLRALRKKSGLTQDEFSKQTGIGRSAVGMYESGKREPNYTTLSKVARFYHVSTDYLLGRTDTP”, -1.52; under “HMVFQTAAEKAYEIISKKIMKGEYEPGMRLVRRQLAQELGVSPIPILEAMKRLEQDGLIEYKAHWGSIVTI”, -2.29.
Under “HMVFRFELQPSSATPLYRQIVEQVTRAVAAGVLRDGEELPSVRAVAQEYVINPMTVSKAYSLLEAQSI” stands -0.366; under “HMVFSNLGSRGEEVRQIQTKLKELGYLQGNVDGIYGNQTKQAVTAFQRDHGLSADGIAGEKTLAALGIG”, 0.636.
In the case of “HMVGAEDISKPMNLGALMRTAHAFGASFFFTINAHPKVRHAYNSDTSRSFDHMPYYPWDTMEE” it was 0.151.
As for “HMVGDLPPQELRVFELIGDGLSNREIADEMILAEKTIKNYVTSLLQKLGMQRRTEAAAFAARLDER”, the “soluble fraction (log2)” value was -0.0289.
In the case of “HMVGDMLTQKDSEGLTAYLYQQGIISQREMLLLNGILKDRVLTGMEKGQRDSVRASMVQHLLAMLNMM”, the “soluble fraction (log2)” value was -1.94.
Under “HMVGEQISYIPLKFATASEVVKSLTSMFQQQKGIAPIRIVAEERTNAILLLASEADTARVKNLIAMMDKGV” stands -2.15; under “HMVGGIAIGQFNVPRGSVKVTAGGRLLQEGLDYTVNYQAGRVQILDESLKNSNVPIEISTESNS”, 0.106.
Under “HMVGMDRYFKIKNIKDSSAAFERDYILHFLKENDWMVSKTAQMIGLERTTLYKKIKQLGLASMLEN” stands -3.24; under “HMVGQIISNARKQEKMTQSELAEKVGTNKTYISRIEKGVIEPGVGLFFRIIDALGLKIEIVKP”, -2.07; under “HMVHSEDLQDHKYVSQLGEVFLKENPNYENIKKSWGDHMVVIKKFGRYPHRNKILNRKSTPEELEFLKG”, -0.0435.
Under “HMVILPGEKMVVKIVQPGKEKGQGVGYLADGTMIVVDSGDKMIGQDVPTEITRVFQTVAGKMLFAVPVD” stands -0.73.
“HMVIMDLIVNGEPKYVVGEQLHLILDELGYSGKHFVVELNGEILSKEAYTTTKLTAADRLEIVSFVGG”: the “soluble fraction (log2)” value was -3.23.
